Measurements taken from PMC3901395, “Multivalent interactions of the SUMO-interaction motifs in RING finger protein 4 determine the specificity for chains of the SUMO” (Biochemical Journal, 2013).

Target: T1, mono-SUMO2 (UniProt P61956 12-93)
T1 construct: SUMO2-ΔN11 monomer (first 11 residues missing) ending with the C-terminal GG motif and a stop codon; The methods describe the monomers from the pGEX-4T2 plasmids as ΔN11; also called SUMO2-ΔN11 monomer; source: E. coli Rosetta 2(DE3)pLysS, purified (glutathione beads, thrombin cleavage, anion exchange, SEC)
Assay: ITC; VP-ITC or ITC200; 25°C; ITC buffer (50 mM Tris/HCl, pH 7.5, 150 mM NaCl, 2 mM DTT, 5% glycerol); SUMOs titrated into a solution of the RNF4 construct or peptide (legends of Figures 1B, 2B); 20–30 injections up to 2–3-fold molar excess; values averaged from two to six titrations
Details: both partners purified

T1 sequence (P61956 12-93): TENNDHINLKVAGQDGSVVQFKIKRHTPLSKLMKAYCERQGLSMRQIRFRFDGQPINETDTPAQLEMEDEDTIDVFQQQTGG

B1: single PIAS1 peptide (peptide)
chain: KVEVIDLTIDSSSDEEEEEP
modifications: exact peptide ends are only in Figure 2A; limits set around the VIDLT core plus C-terminal acidic flank; termini unknown
Question: How did the Kd turn out when B1 was run?
Answer: 16 µM
